Paper PMC3930447

Molecular target: GST-Dip1 (S. pombe) (S. pombe) (UniProt O74771)
Assay: pull-down

UniProt O74771, sequence (O74771 whole entry): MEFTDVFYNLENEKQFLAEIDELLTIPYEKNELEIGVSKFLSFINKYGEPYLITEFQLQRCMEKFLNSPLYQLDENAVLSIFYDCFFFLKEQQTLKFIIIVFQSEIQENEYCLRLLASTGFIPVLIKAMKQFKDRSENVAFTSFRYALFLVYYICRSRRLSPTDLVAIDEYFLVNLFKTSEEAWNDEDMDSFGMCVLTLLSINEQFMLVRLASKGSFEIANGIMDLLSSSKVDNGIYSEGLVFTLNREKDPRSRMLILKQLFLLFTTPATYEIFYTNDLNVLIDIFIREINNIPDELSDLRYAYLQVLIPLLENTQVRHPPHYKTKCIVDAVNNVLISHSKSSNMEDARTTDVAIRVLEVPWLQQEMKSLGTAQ

percent pulled down: 20%
Substance: S. pombe Arp2/3 complex (from UniProt Q9UUJ1 1-390)
